Assays:
[1] = biological target: T1, Recombinant human IL-23 receptor (IL-23R) extracellular domain (ECD) protein (human, UniProt Q5VWK5 24-355); experiment: SPR Biacore 8K, supernatant, analysis 1
T1 construct: also called human IL-23R ECD; hu IL-23R ECD
T1 sequence: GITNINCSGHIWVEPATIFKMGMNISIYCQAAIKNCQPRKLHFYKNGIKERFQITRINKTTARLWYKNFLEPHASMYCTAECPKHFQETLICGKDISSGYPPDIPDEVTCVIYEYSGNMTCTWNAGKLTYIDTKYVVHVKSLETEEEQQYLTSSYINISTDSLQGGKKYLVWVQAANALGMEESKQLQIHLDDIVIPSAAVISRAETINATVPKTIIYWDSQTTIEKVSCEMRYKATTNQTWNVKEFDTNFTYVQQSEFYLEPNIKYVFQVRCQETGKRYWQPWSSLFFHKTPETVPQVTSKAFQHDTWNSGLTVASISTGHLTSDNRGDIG
Method in brief: (§1)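 Kinetics fitted to a 1:1 Langmuir model gave on-rate, off-rate and KD. Human or rat IL-23R ECD flowed over captured mAbs (~150 RU) at 0.8–500 nM, 5-fold dilutions: 3 min binding at 50 μL/min, then 30 min buffer, 25 °C, HBS-P+ plus 100 μg/ml BSA.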

[2] = biological target: T2, human IL-23R on the cell surface (human, UniProt Q5VWK5 24-629); experiment: flow cytometry, HEK-IL-23R cells (Expt E)
T2 construct: whole, on cells; also called cell surface human IL-23R; IL-23R on iLite cells, HEK-IL-23R cells and primary human immune cells
T2 sequence (looked up): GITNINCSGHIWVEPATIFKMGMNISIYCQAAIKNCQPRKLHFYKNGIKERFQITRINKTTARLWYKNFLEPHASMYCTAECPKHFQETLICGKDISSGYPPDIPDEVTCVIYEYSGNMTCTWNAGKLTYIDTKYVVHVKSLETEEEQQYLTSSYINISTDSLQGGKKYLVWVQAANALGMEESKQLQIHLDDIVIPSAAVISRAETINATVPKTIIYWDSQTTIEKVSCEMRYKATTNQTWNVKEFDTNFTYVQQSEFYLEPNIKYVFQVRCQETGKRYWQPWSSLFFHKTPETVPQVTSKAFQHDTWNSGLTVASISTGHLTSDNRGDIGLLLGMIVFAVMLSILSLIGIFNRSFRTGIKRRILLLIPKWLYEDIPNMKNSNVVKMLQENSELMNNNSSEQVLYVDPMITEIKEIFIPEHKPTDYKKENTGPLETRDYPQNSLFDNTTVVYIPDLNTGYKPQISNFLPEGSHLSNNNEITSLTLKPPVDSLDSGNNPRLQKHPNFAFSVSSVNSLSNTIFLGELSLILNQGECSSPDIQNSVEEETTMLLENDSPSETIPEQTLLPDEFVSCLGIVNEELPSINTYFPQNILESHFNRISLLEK

[3] = biological target: T1, Recombinant human IL-23 receptor …; experiment: SPR Biacore 8K, supernatant, analysis 2
Method in brief: as §1

[4] = biological target: T3, rat IL-23R extracellular domain (ECD) protein (rat); experiment: SPR Biacore 8K, supernatant
T3 construct: also called rat IL-23R ECD; F1LX96 amino acids 24-354
T3 chain: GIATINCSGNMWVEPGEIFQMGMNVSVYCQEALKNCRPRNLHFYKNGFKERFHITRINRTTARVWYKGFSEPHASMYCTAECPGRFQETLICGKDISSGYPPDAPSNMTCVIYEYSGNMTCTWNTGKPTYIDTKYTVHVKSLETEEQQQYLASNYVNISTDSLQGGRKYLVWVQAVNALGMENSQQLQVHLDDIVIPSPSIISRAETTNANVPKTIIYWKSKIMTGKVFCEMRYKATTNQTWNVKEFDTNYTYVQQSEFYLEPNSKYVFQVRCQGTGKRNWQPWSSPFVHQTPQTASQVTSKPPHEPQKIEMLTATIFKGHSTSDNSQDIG
Method in brief: as §1

B1: I23RB165 (antibody, mouse IgG2a, kappa, V domains shown)
VH: EVQLQQSGAELVRPGASVKLSCTASGFNIKDSLMHWVKQRPEQGLEWIGWIDPEDGKTKYAPKFQDKATITADTSSNTAYLQLSSLTSEDTAIYYCARREVLDYFDYWGQGTTLTVSS
VL: DIVMTQSPASLAVSLGQRATISCRASKSVSTSGYSYMHWYQQKPGQPPKLLIYLASNLESGVPARFSGSGSGTDFTLNIHPVEEEDAATYYCQHSRELPLTFGAGTKLEMKR
notes: mouse immunization; mouse IgG2a/kappa
- Kd [1]: 18.1 nM
- koff [1]: 0.00806 s⁻¹
- kon [1]: 446000 M⁻¹ s⁻¹
- EC50 [2]: ≤ 9.7 nM
- Kd [3]: 29.1 nM
- koff [3]: 0.00941 s⁻¹
- kon [3]: 324000 M⁻¹ s⁻¹
- binding result [4]: no binding (tested: 500 nM)

B2: I23RB71 (antibody, mouse IgG2a, kappa, V domains shown)
VH: DVQLQESGPDLVKPSQSLSLTCTVTDYSITRGYNWHWIRQFPGNKLEWMGYIHYSGSTNYNPSLKSRISITRDTSKNQFFLQLNSVTTEDTATYYCARQYGLKAMDYWGQGTSVTVSS
VL: DIVMTQSHKFMSTSVGDRVSITCKASQDVITAVAWYQQKPGQSPKLLIYSASYRYTGVPDRFTGSGSGTDFTFTISSVQAEDLAVYFCQQHFGTPYTFGSGTKLEMKR
notes: as for B1
- Kd [1]: 0.328 nM
- koff [1]: 0.000231 s⁻¹
- kon [1]: 704000 M⁻¹ s⁻¹
- EC50 [2]: ≤ 9.7 nM
- Kd [3]: 0.129 nM
- koff [3]: 4.63e-05 s⁻¹
- kon [3]: 358000 M⁻¹ s⁻¹
- binding result [4]: no binding (tested: 500 nM)

B3: I23RB173 (antibody, mouse IgG2a, kappa, V domains shown)
VH: DVQLQESGPGLVKPSQSLSLTCSVTGYSITSGYYWNWIRQFPGNKLEWMGYISYDGGNNYNPSLKNRISITRDTSKNQFFLKLNSVTTEDTATYYCARDAGLLPYYAMDYWGQGTTLTVSS
VL: DIKMTQSPAIMSASPGEKVTITCSASSSVSYMHWFQQKPGTSPKLWIYSTSNLASGVPARFSGSGSGTSYSLTISRMEAEDAATYYCQQRSSYPLTFGDGTKLEMKR
notes: as for B1
- Kd [1]: 25.7 nM
- koff [1]: 0.00759 s⁻¹
- kon [1]: 296000 M⁻¹ s⁻¹
- EC50 [2]: ≤ 9.7 nM
- Kd [3]: 36.1 nM
- koff [3]: 0.0103 s⁻¹
- kon [3]: 285000 M⁻¹ s⁻¹
- binding result [4]: no binding (tested: 500 nM)

Source: US20250179196A1 (Janssen / Centocor, published 2025)
